Consider one protein from PMC2909917, “Dynamic Subunit Exchange and the Regulation of Microtubule Assembly by the Stress Response Protein Human αB Crystallin” (PLoS ONE, 2010).

As usually defined, the stoichiometry N is a count of units in the complex or per binding partner.

The data set concerns the molecule itself. The data set is described as follows: SEC; 128 µM αB crystallin alone in 20 mM tris-HCl, 160 µM MgCl2, 40 µM EGTA, pH 8.0; Biosep SEC-S4000, eluted in 20 mM tris-Cl pH 8.0 at 4°C; size from calibration proteins (apparent); subunits to polydisperse complex.

B1: human αB crystallin (natural protein, UniProt P02511 1-175, looked up)
chain: MDIAIHHPWIRRPFFPFHSPSRLFDQFFGEHLLESDLFPTSTSLSPFYLRPPSFLRAPSWFDTGLSEMRLEKDRFSVNLDVKHFSPEELKVKVLGDVIEVHGKHEERQDEHGFISREFHRKYRIPADVDPLTITSSLSSDGVLTVNGPRKQVSGPERTIPITREEKPAVTAAPKK
notes: human αB crystallin, expressed from a human αB crystallin pET16b plasmid; 20 kDa on SDS-PAGE; Polydisperse complex; pET16b can add an N-terminal His tag, but purification was by anion exchange and SEC, so the protein is probably untagged (surmise); also called small heat shock protein (sHSP); source: E. coli BL21 (DE3), purified (Q Sepharose Fast Flow, Superdex 200); copies: 24
On to B1, for which the “stoichiometry N” value was 24 subunits.
